Assay: soluble on expression in E. coli; label from the status in PepcDB or PDB records

MAHHHHHHMGLKFYVLVFLILCLKNVVKGDKCETEFSKLYPESNSLTGLIYAHTANVHKLSMWVYFIYNHFSSADELIKYLEKTNINTLENSDHTCFARAVTLYLFYYYLKDIKSMLSTDDYQSFFKNKFKDINPLFINDFILILNDKKFMENLDLYIMKESEREHLVIKKNPFLRVLNKASTTTHATYKSNPYFIVGSRVHTPYKDYLGDFNKYTEISVLNYVRDYNFLIYAGSRENYYNSDIAGPARSVNNVISKNKTLGLRKRSSSLALVGTNNNDPIFAYCEKDNKSEYYGTPDDLITSFFSIIKTKMLNSHKTFLRQFDYALFHKTYSIPNLKGFRFLKHLFQKKNLVNFVGMYENHVSTEINFLAEDFVELFDVTMDCYSRQYSNRAAENFKAIRELNVL
soluble on expression in E. coli: not soluble

MSKDYRSLANLSPFELKDELIKVASGKANRLMLNAGRGNPNFLATTPRRAFFRLGLFAAAESELSYSYMTVGVGGLAKLDGIEGRFERFIAEHRDQEGVKFLGKSLSYVRDQLGLDPAAFLHEMVDGILGCNYPVPPRMLTVSEQIVRQYIVREMAGGAVPPESVDLFAVEGGTAAMAYIFESLRISGLLKAGDKVAIGMPVFTPYIEIPELAQYDLKEVPIHADPDNGWQYSDAELDKLKDPDVKIFFCVNPSNPPSVKMDQRSLDRVRAIVAEQRPDLLILTDDVYGTFADEFQSLFSVCPRNTLLVYSFSKYFGATGWRLGVIAAHKDNVFDHALSQLPESAKKALDHRYRSLLPDVRSLKFIDRLVADSRVVALNHTAGLSTPQQVQMVLFSLFALMDEADAYKQALKQLIRRREATLYRELGMPPLENPNSVNYYTLIDLQNVTCRLYGEAFSQWAVQQSSTGDMLFRVADETGIVLLPGRGFGSDRPSGRASLANLNEYEYAAIGRALRRLADELYEQYKALGKEKLAAALEHHHHHH
soluble on expression in E. coli: soluble

MYDNTTDTKMQAERQKKSCTTVGGVLAYSVPTGLHRCDSAVTRVEEVHMAEMVEIPAALYGRGAVRVVPVDSTVRLDVKIPAALMRKLMIESNRSGVPLTKIVDRLLSAAIAQDSEQEEIRPR
soluble on expression in E. coli: not soluble

MGSDKIHHHHHHMRTLKELERELQPRQHLWYFEYYTGNNVGLFMKMNRVIYSGQSDIQRIDIFENPDLGVVFALDGITMTTEKDEFMYHEMLAHVPMFLHPNPKKVLIIGGGDGGTLREVLKHDSVEKAILCEVDGLVIEAARKYLKQTSCGFDDPRAEIVIANGAEYVRKFKNEFDVIIIDSTDPTAGQGGHLFTEEFYQACYDALKEDGVFSAETEDPFYDIGWFKLAYRRISKVFPITRVYLGFMTTYPSGMWSYTFASKGIDPIKDFDPEKVRKFNKELKYYNEEVHVASFALPNFVKKELGLM
soluble on expression in E. coli: not soluble

MKKKIGLLVMAYGTPYKEEDIERYYTHIRRGRKPSPEMLEDLTERYRAIGGISPLATITLEQAKKLEKRLNEVQDEVEYHMYLGLKHIEPFIEDAVKEMHNDGIQDAIALVLAPHYSTFSVKSYVGRAQEEAEKLGNLTIHGIDSWYKEPKFIQYWVDAVKSIYSGMSDAEREKAVLIVSAHSLPEKIIAMGDPYPDQLNETADYIARGAEVANYAVGWQSAGNTPDPWIGPDVQDLTRELNEKYGYTSFVYAPVGFVAEHLEVLYDNDFECKVVTDEIGAKYYRPEMPNASDAFIDCLTDVVVKKKESVM
soluble on expression in E. coli: soluble

MGSDKIHHHHHHMADLKKQIASGKIAPVYFFQGPESWLKEEIETQLKAAIFPSENEAALNTLVLYGPDLTLGQIVSAASEYPMFTEKKLVVVRQFDKLKKVTDKTESQRQEKSLLSYLSDPPSFTVLVLDADEIEKTELEKAPYKHLKAFRHDFGAIKNAEIFAAERAREAGWEFEPEALKTFSGYIEPSSRLICQEIEKLTLYASNKRPERRITLDDVCDCVGISRKYNVFELEKALVSKNLRQCSGIALMIMEQEGQKEGLMNIVRYLTTFFLRIWKLQTPGAQQLSLQETAAMLGMYGRQEYFAKNFIGYARQFSAAETENAILALRDADAALKGIIPSPDDRFTLLKLMQQLFN
soluble on expression in E. coli: not soluble

MEWKDIKGYEGHYQVSNTGEVYSIKSGKTLKHQIPKDGYHRIGLFKGGKGKTFQVHRLVAIHFCEGYEEGLVVDHKDGNKDNNLSTNLRWVTQKINVENQMSRGTLNVSKAQQIAKIKNQKPIIVISPDGIEKEYPSTKCACEELGLTRGKVTDVLKGHRIHHKGYTFRYKLNG
soluble on expression in E. coli: soluble

MGSDKIHHHHHHMFVCEVRFECFADTTISAAQHAINHLLEAWRANGQILGREFAVSFHDGEFKARLMLPAQDSLANRHNSPWAKAALKGLTDAKILPPREKLLGQDINANESATHTPEWQLLYTSYVHMCSPVRSGDNLLPIPLYKLPATFNGDHKQLIRWQTEWQACDELQMASATKAEFAALDELCNVGSDLFRRGWDLRGRIEYLTKIPTYYYLYRVGGSSLQDELARPCPRCGSTGWRLDEPLLDMFHFRCEPCRIVSNLSWDYQ
soluble on expression in E. coli: not soluble

MGSDKIHHHHHHMAHHAAPPINTTKFPIDRWWVAALSSELTDKPVARTLLGRPVVLFRLPSGEVGALEDRCCHKSLPLSCGSLEVRGLRCGYHGLLFDRDGACVEIPGQDRIPAKACVASYPVREQDAIVWIWIGAEAHAEPTCAPPRYPFHSDPQYRFGGGHYHYDAPYQLIHDNLMDLSHLGYVHLKTIGGNASLHMGAETRVSTDGDTVTLVRRMPDSEPPPTYTAAWPFAGRVDRWQEIEFHVSHIRIWTGAMDAGTGDLHDPARGGFHMRGFHGITPETETTTHYFWTVATNPQHDIERVARTVIEQSAATFDEDKTVIEAQYRNQLRFPDRRQIDIHVDAGPNRARRVIERLLLQPEPA
soluble on expression in E. coli: not soluble

MDLIAPEDVVVTLSHAGYAKRQPVSAYRAQRRGGRGRSAASTKEEDFIDQLWLVNTHDTLLTFTSSGKVFWLPVHQLPEAGSNARGRPIINWIPLESGERVQAVLPVREYADNRYVFMATRNGTVKKTPLSEFAFRLARGKIAINLDEGDALVGVALTDGDRDVLLFASNGKTVRFGESTVRSMGRTATGVRGIRLAKGEEVVSLIVSERAGGVEDEVEDESAEEVVETTDGAEPAVIDVADNGDVAYILTATENGYGKRTPLAEYPRKGRGTQGVIGIQTTERNGKLVRAVLLGSTDEVMLISDGGTLVRTRGSEISRVGRNTQGVTLIRLSKGEKLQAVERLDASLEEPEDVVDEAVAITSDAPPAEG
soluble on expression in E. coli: soluble

MNFNKLKFGATIGIIGGGQLGKMMAQSAQKMGYKVVVLDPSEDCPCRYVAHEFIQAKYDDEKALNQLGQKCDVITYEFENISAQQLKLLCEKYNIPQGYQAIQLLQDRLTEKETLKSAGTKVVPFISVKESTDIDKAIETLGYPFIVKTRFGGYDGKGQVLINNEKDLQEGFKLIETSECVAEKYLNIKKEVSLTVTRGNNNQITFFPLQENEHRNQILFKTIVPARIDKTAEAKEQVNKIIQSIHFIGTFTVEFFIDSNNQLYVNEIAPRPHNSGHYSIEACDYSQFDTHILAVTGQSLPNSIELLKPAVMMNLLGKDLDLLENEFNEHPEWHLHIYGKSGRKDSRKMGHMTVLTNDVNQTEQDMYAKFEGSN
soluble on expression in E. coli: soluble

MDGSLSRPAVLDRAARQKRGTMARPQSKKKQTQVVRRPRRRGRLVPPGRLIAGRDFPEFLQQAVLLSGSLRQAARKLRVSYSTLRGWFGRRCDEPPEGGGDLLAEHAAAIRAELDAAAERLAMVRGQLDALERGE
soluble on expression in E. coli: not soluble

MSEKPLTKTDYLMRLRRCQTIDTLERVIEKNKYELSDNELAVFYSAADHRLAELTMNKLYDKIPSSVWKFIR
soluble on expression in E. coli: soluble

MSLSNYSTGELAKLCNVTTRTIQYYDRKGILKPQGFTEGKRRVYTEQQRQTLELILLLKDLGCALSDIDMLLKGEGTLKTLNTLLTMKQQEINQQVKQQQAVLNKIKNVQYYVNEGHHHHHH
soluble on expression in E. coli: not soluble

MLKYMLDTNIAIYVIKRRPIEVLVTFNRYADMMCVSAVTEAELLHGAEKSRQREHNLRQVADFLSRLEVLSYTSKAAGHYGDIRADLERKEKPIGVNDLHIAAHARSEGFILVSNNLREFERVDGLRLENWIT
soluble on expression in E. coli: not soluble

MGHHHHHHSHNLGPRLTPLLQEEDSHQRLLMGLMVSELKDHFLRHLQGVEKKKIEQMVLDYISKLLDLICHIVETNWRKHNLHSWVLHFNSRGSAAEFAVFHIMTRILEATNSLFLPLPPGFHTLHTILGVQCLPLHNLLHCIDSGVLLLTETAVIRLMKDLDNTEKNEKLKFSIIVRLPPLIGQKICRLWDHPMSSNIISRNHVTRLLQNYKKQPRNSMINKSSFSVEFLPLNYFIEILTDIESSNQALYPFEGHDNVDAEFVEEAALKHTAMLLGL
soluble on expression in E. coli: not soluble
